# From patent US20190248902A1 (published 2019)
# Substitutions are numbered along the chain they refer to.
# B1: 202A3 (antibody, V domains shown)
# VH: QVQLEQSGAEVKKPGASVKVSCKASGYTFTSYDINWVRQATGQGLEWLGWMNPKRGNTGYAQKFQGRVTMTRNTSISTAHMELSSLRSEDTAVYYCARGRYSREDYYYYYDMDVWGQGTTVTVSS
# VL: DIQMSQSPSSLSASVGDRVTITCRASQGIRNDLGWYQQKPGKAPKRLICAASRLQSGVPSRFSGSGSGTEFTLTISSLQPEDFAIYYCLQHHDYPFTFGPGTKVDIK
# B2: 4A2 (antibody, V domains shown)
# VH: QVQLVQSGTEVKKPGASVKVSCKASGYTFTNYDINWVRQATGQGLEWMGWMHPNSGNTGYAQKFQGRVTLTRNTSISTAYMELSSLRSEDTAVYYCASSSGWYYFDYWGQGTLVTVSS
# VL: DIVMTQSPDSLAVSLGERATINCKSSQSILHSSNNNNYLAWFQQKPGQPPKLLLYWASTRESGVPDRFSGSGSGTDFTLTISSLQPEDVAVYYCQQYYNTPVTFGPGTKVGIK
# B3: 194C10 (antibody, V domains shown)
# VH: QVQLQQWGAGLLKPSETLSLTCAVSGGSFRYYYWSWIRQPPGKGLEWFGEINHSGSTNYNPSLKSRVTISIDTSKNQFSLKLRSVTAADTAVYYCARDYGAFDIWGQGTMVTVSS
# VL: EIVLTQSPGTLSLSPGERATLSCRASPSVNSGYLAWYQQKPGQTPRLLIFGASSRATGIPDRFSASGSGADFTLTISRLEPEDFAVYFCQQYESSPWTFGQGTKVEIK
# B4: 194C1 (antibody, V domains shown)
# VH: QVQLVESGGGVVQPGRSLRLSCAASGFTFSSYGMHWVRQAPGKGLEWVAVIWYDGSNEHYADSVKGRFTISRDNSKNTLYLQMNSLRAEDTAVYYCARNRGVGYYGLDVWGQGTTVTVSS
# VL: DIQMTQSPSSLSASVGDRVTITCRASQGISNYLAWFQQKPGKAPKSLIYAASSLQSGVPSKFSGSGSGTDFTLTISSLQPEDFATYYCLHYLTYPLTFGGGTKVEIK
# B5: 197G3 (antibody, V domains shown)
# VH: B4 VH with A23V, Y32H, E58K, H59N, N99D, R100P, G101S, Y105D, L107M
# VL: DIQMTQSPSSLSASVGDRVTITCRASQGIGNHLAWFQQKPGKAPKSLIYAASSLQSGVPSKFSGSRSGTDFSLTISSLQPEDFATYYCQQYSNYPVTFGPGTKVDIK
# B6: 4B1 (antibody, V domains shown)
# VH: QVQLQESGPGLVKPSETLSLTCSVSGDSISSYSWSWIRQPAGKGLEWIGRIYTSGSTNYIPSLKSRITMSVDTSKKQFSLKLSSVTAADTAVYYCARDLKSSGCLFFDYWGQGTLVTVSS
# VL: DIQMTQSPSSLSASVGDRVTITCRASHTIRTYLNWYQQKPGKAPKLLIYAASSLQSGVPSRINGSGSGTDFTLTITNLQPEDFATYYCQQSYNISFTFGPGTKVDIK
# B7: 198D2 (antibody, V domains shown)
# VH: QVQLVESGGGVVQPGRSLRLSCAASGFTFRSYGMHWVRQAPGKGLEWVAVIIYDGSYKYYADSVKGRFTISRDNSKNTLYLQMNSLRAEDTAVYYCARTYSGGMDVWGQGTTVTVSS
# VL: QSVLTQPPSVSAAPGQKVTISCSGSSSNIGSNYVSWYQQLPGTAPKVLIYDNNKRPSGIPDRFSGSKSGTSATLGITGLQTGDEADYYCGTWDSRLNVGVFGGGTKLTVL
# B8: 218G4 (antibody, V domains shown)
# VH: QVQLVESGGGVVQPGRSLRLSCAASGFTFSSYGLHWVRQAPGKGLEWVAVIWYDGSNKYYADSVKGRFTISRDNSKNTLYLQMNSLRVEDTAVYYCANWYYYYYGMDVWGQGTTVTVSS
# VL: B7 VL with S31N, V47L, I49L, N52S, D61A, R95S, V98T, G99V
# B9: 4H6 (antibody, V domains shown)
# VH: QVQLVQSGAEVKKPGASVKVSCKASGYTFTDYYLHWVRQAPGQGLEWMGWIHPNSGGTNYAQKFQGRVTMTRDTSISTAYMGLSSLRSDDTAVYYCARDGTSSFDYWGQGTLVTVSS
# VL: DIQMTQSPSSVSASVGDRVTITCRASQGISRWLAWYQQKPGKAPKLLIYGASSLQSGVPSRFSGSGSGTDFTLTISSLQPEDFAIYYCQQANSFPFTFGPGTKVDIK
# notes: tested as antibody purified from hybridoma supernatant or made recombinantly
# Key:
# human ASGR-1 [1] = target: T1, human ASGR-1 (human, UniProt P07306 1-291); assay: FACS ligand blocking on CHO-S ASGR-1 cells; labelled ligand biotin-GalNAc-PAA (synthetic sugar)
# T1 construct: Stably expressed on CHO-S cells (CHO-S:huASGR-1); The method text says human or mouse ASGR-1 cells were used; also called huASGR-1; hASGR-1
# T1 sequence: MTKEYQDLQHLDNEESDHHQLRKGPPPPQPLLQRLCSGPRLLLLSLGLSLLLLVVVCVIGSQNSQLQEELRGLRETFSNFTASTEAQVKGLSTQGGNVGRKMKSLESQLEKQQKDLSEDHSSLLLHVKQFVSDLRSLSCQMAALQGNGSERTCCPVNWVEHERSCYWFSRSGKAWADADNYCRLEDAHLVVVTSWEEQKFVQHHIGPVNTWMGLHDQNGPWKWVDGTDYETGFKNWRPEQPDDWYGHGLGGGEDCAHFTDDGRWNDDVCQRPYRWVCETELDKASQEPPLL
# Experimental: (§1) All ASGR-1 antibodies that bound either human or mouse ASGR-1 stable CHO—S cells were then tested for ligand blocking using both a protein ligand and a synthetic sugar ligand. The method in brief is as follows: first, 20 ul of either CHO-Shuman or mouse ASGR-1 cells were added to wells of a 384 well plate (30 k cells/well) followed by spin and discarding the supernatant. Second, 10 ul of the antibodies (either purified from hybridoma supernatants or made recombinantly) were added in duplicate to the cells in a dilution series (200 nM top concentration, 1:2 serial dilution, 11 point curve) and were incubated for 30 min at 4 C. […] After 30 min incubation at 4C, the plate was spun and washed twice with FACS buffer+1 mM CaCl2 followed by the detection streptavidin-AF647 at 1:1000 dilution. After 30 min at 4C, the cells were spun and washed once and then 60 ul PI added at 1:1000 dilution and the plates delivered to a core flow cytometry facility. The plates were read and processed similarly to the cell binding method except the signal now represents an inhibition curve and typically decreases a function of increasing antibody concentration. IC50 nM potency and % Inhibition were reported. […] Differences in the ability of antibodies to block these two ligands could occur as a result of differences in, for example, avidity stemming from differences in the number and/or orientation of the ASGR binding terminal sugar residues of each ligand, steric hindrance between antibody and each ligand, and/or changes in the conformation of ASGR induced by antibody binding that selectively alters the binding of each ligand.
# human ASGR-1 [2] = target: T1, human ASGR-1; assay: FACS ligand blocking on CHO-S ASGR-1 cells; competitor biotinylated asialofetuin
# Experimental: as §1
Binder,% Inhibition (human ASGR-1 [1]) [%],IC50 (human ASGR-1 [1]) [nM],% Inhibition (human ASGR-1 [2]) [%],IC50 (human ASGR-1 [2]) [nM]
B1,96,32,98,16
B2,70,54,99,11
B3,99,–,99,–
B4,89,72,99,34
B5,74,15,90,29
B6,36,42,75,64
B7,99,55,99,22
B8,99,71,99,28
B9,20,8.1,85,12
